Source: the supplement of paper PMC9112550, “Optimization of the antimicrobial peptide Bac7 by deep mutational scanning” (BMC Biology, 2022)

Tested on: Escherichia coli TOP10
Experiment: shrunken log2 fold change of peptide-encoding DNA abundance (4.5 h post-induction vs induction); higher = less antimicrobial activity (less host growth inhibition)
Details: time post-induction: 4.5 h; library: site-saturation at positions 5, 18, 19, 20
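Note: peptides expressed intracellularly from a pBAD plasmid library in pooled LB shake-flask culture, induced with 0.3% L-arabinose, DNA abundance read by NGS, three biological replicates, DESeq2 with apeglm shrinkage.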

| Sequence | shrunken log2 fold change |
| --- | --- |
| RRIRERPPRLPRPRPRPLSFPRP | 0.329 |
| RRIRERPPRLPRPRPRPWFSPRP | -0.336 |
| RRIRLRPPRLPRPRPRPMDSPRP | -0.172 |
| RRIRRRPPRLPRPRPRPERCPRP | 0.322 |
| RRIRCRPPRLPRPRPRPFCMPRP | 0.174 |
| RRIRRRPPRLPRPRPRPYREPRP | -0.344 |
| RRIRGRPPRLPRPRPRPCEKPRP | 0.797 |
| RRIRVRPPRLPRPRPRPWVMPRP | -0.212 |
| RRIRHRPPRLPRPRPRPNIAPRP | -0.112 |
| RRIRMRPPRLPRPRPRPYMCPRP | 0.00451 |
| RRIRGRPPRLPRPRPRPTKGPRP | 0.2 |
| RRIRKRPPRLPRPRPRPFLIPRP | -0.19 |
| RRIRQRPPRLPRPRPRPKKLPRP | -0.296 |
| RRIRGRPPRLPRPRPRPGDHPRP | 0.333 |
| RRIRKRPPRLPRPRPRPHRKPRP | -0.0475 |
| RRIRTRPPRLPRPRPRPTAAPRP | 0.211 |
| RRIRMRPPRLPRPRPRPAKTPRP | 0.0368 |
| RRIRSRPPRLPRPRPRPLLWPRP | 0.236 |
| RRIRGRPPRLPRPRPRPLPNPRP | 0.781 |
| RRIRIRPPRLPRPRPRPPSWPRP | 0.0866 |
| RRIRERPPRLPRPRPRPIVIPRP | -0.233 |
| RRIRVRPPRLPRPRPRPNRTPRP | 0.0905 |
| RRIRGRPPRLPRPRPRPDTAPRP | 1 |
| RRIRMRPPRLPRPRPRPFYFPRP | -0.569 |
| RRIRWRPPRLPRPRPRPSAQPRP | 0.422 |

| Sequence | shrunken log2 fold change |
| --- | --- |
| RRIRPRPPRLPRPRPRPKHSPRP | -0.155 |
| RRIRYRPPRLPRPRPRPVNHPRP | -0.073 |
| RRIRLRPPRLPRPRPRPKRMPRP | -0.029 |
| RRIRKRPPRLPRPRPRPPTAPRP | 0.742 |
| RRIRFRPPRLPRPRPRPDDTPRP | 0.0516 |
| RRIRLRPPRLPRPRPRPWPPPRP | 0.668 |
| RRIRNRPPRLPRPRPRPMDMPRP | -0.235 |
| RRIRARPPRLPRPRPRPLDTPRP | 0.39 |
| RRIRVRPPRLPRPRPRPMKRPRP | 0.0336 |
| RRIRTRPPRLPRPRPRPNMFPRP | -0.315 |
| RRIRFRPPRLPRPRPRPGPMPRP | 0.104 |
| RRIRPRPPRLPRPRPRPIELPRP | -0.0296 |
| RRIRTRPPRLPRPRPRPIQWPRP | 0.015 |
| RRIRTRPPRLPRPRPRPADPPRP | 0.0203 |
| RRIRCRPPRLPRPRPRPLAVPRP | 0.0263 |
| RRIRGRPPRLPRPRPRPCVIPRP | 0.033 |
| RRIRDRPPRLPRPRPRPGGPPRP | 0.247 |
| RRIRHRPPRLPRPRPRPYFLPRP | -0.996 |
| RRIRNRPPRLPRPRPRPSTHPRP | -0.274 |
| RRIRTRPPRLPRPRPRPYMRPRP | -0.48 |
| RRIRTRPPRLPRPRPRPMDLPRP | -0.0399 |
| RRIRLRPPRLPRPRPRPRGYPRP | 0.262 |
| RRIRERPPRLPRPRPRPVLEPRP | -0.0875 |
| RRIRSRPPRLPRPRPRPHHTPRP | -0.625 |
| RRIRKRPPRLPRPRPRPMPKPRP | 0.421 |

| Sequence | shrunken log2 fold change |
| --- | --- |
| RRIRLRPPRLPRPRPRPIGMPRP | 0.0212 |
| RRIRGRPPRLPRPRPRPGKRPRP | 0.249 |
| RRIRERPPRLPRPRPRPWSFPRP | -0.0191 |
| RRIRIRPPRLPRPRPRPHLYPRP | -0.241 |
| RRIRWRPPRLPRPRPRPDTFPRP | -0.0255 |
| RRIRHRPPRLPRPRPRPQNSPRP | -0.423 |
| RRIRLRPPRLPRPRPRPMVNPRP | -0.0358 |
| RRIRLRPPRLPRPRPRPIHQPRP | 0.0518 |
| RRIRKRPPRLPRPRPRPQARPRP | -0.0213 |
| RRIRGRPPRLPRPRPRPQCSPRP | -0.0401 |
| RRIRGRPPRLPRPRPRPAKYPRP | 0.155 |
| RRIRDRPPRLPRPRPRPLMPPRP | 0.097 |
| RRIRNRPPRLPRPRPRPTLSPRP | 0.145 |
| RRIRSRPPRLPRPRPRPSQLPRP | -0.302 |
| RRIRHRPPRLPRPRPRPVLQPRP | -0.169 |
| RRIRKRPPRLPRPRPRPIFQPRP | 0.266 |
| RRIRWRPPRLPRPRPRPLYHPRP | -0.307 |
| RRIRRRPPRLPRPRPRPRKMPRP | 0.163 |
| RRIRFRPPRLPRPRPRPLAGPRP | -0.104 |
| RRIRERPPRLPRPRPRPCKAPRP | -0.0137 |
| RRIRERPPRLPRPRPRPGCDPRP | 0.0125 |
| RRIRVRPPRLPRPRPRPIDIPRP | -0.11 |
| RRIRFRPPRLPRPRPRPCFQPRP | -0.227 |
| RRIRIRPPRLPRPRPRPVIYPRP | -0.695 |
| RRIRNRPPRLPRPRPRPSPIPRP | -0.561 |
